How the values were obtained:
CLP-induced sepsis = assay: serum organ injury markers (ALT, AST, creatinine, BUN, LDH) in CLP-induced sepsis; type: in vivo, mouse; settings: FIG. 17
Method: (§1) To induce inflammation, male mice were anesthetized with 2% isoflurane (JW Pharmaceutical, Republic of Korea) in oxygen delivered via a small rodent gas anesthesia machine (RC2, Vetequip, Pleasanton, Calif.), first in a breathing chamber and then via a facemask. They were allowed to breathe spontaneously during this procedure. The CLP-induced inflammation model was prepared as previously described. In brief, a 2-cm midline incision was made to expose the cecum and adjoining intestine. The cecum was then tightly ligated with a 3.0-silk suture at 5.0 mm from the cecal tip and punctured once using a 22-gauge needle for the induction of high grade inflammation. It was then squeezed gently to extrude a small amount of feces from the perforation site and returned to the peritoneal cavity. The laparotomy site was then sutured with 4.0-silk. In sham control animals, the cecum was exposed but not ligated or punctured and then returned to the abdominal cavity. This protocol was approved by the Animal Care Committee at Kyungpook National University prior to the conduct of the study (IRP No, KNU 2012-13).
(§2) Fresh serum was used for assaying aspartate transaminase (AST), alanine transaminase (ALT), blood urea nitrogen (BUN), creatinine, and LDH using biochemical kits (Mybiosource). To determine the concentrations of IL-6, IL-10, and TNF-α, commercially available ELISA kits were used according to the manufacturer's protocol (R&D Systems). Values were measured using an ELISA plate reader (Tecan, Austria GmbH, Austria).

endothelial cells = assay: in vivo binding to endothelial cells (intravenously injected mice, isolated mouse endothelial cells); settings: mouse animal model, FIG. 12B
From the text: The endothelial cells were isolated according to the manufacturer's (Dynal Biotec, Lake Success, N.Y.) instructions, using Dynabeads coupled to anti-CD31 antibody and the Dynal Magnetic holder. Briefly, for endothelial cell isolation, four to six mice (6-10 weeks old) were anesthetized, followed by exposure of the peritoneal cavity. Excised lungs and hearts were put into RPMI media, followed by removing other tissues from the heart and lungs, and then rinsing once in PBS. The lungs and heart were incubated with 1.0 mg/mL of collagenase A in a 50 mL tube for 1 h at around 37° C. Every 5 min during this incubation, the tube was gently agitated for a few seconds, and then the suspension was transferred into a new 50 mL tube by passing it through the 70 um tissue sieve (BD Falcon). The filtered cell suspension was centrifuged for 10 min at 1000 rpm. After removal of the supernatant, the cell pellet was washed once with cold PBS in a new 15-mL tube. […]
A direct cell-binding assay was performed on HUVECs and in vivo using fluorescence labeled-PC-Gla, TFG, and TFMG. […] The fluorescence value of the HUVECs or endothelial cells were measured with tightly bound PC-Gla, TFG, and TFMG, respectively. The concentrations of PC-Gla, TFG, and TFMG were measured by using the nanoparticle ratio of fluorescent dye per protein.

HUVECs = assay: HUVEC cell-binding assay with fluorescence-labeled molecules (in vitro); type: cell-based, human; settings: for degree of binding to HUVECs: FIG. 10, compared with PC-Gla; for in vitro binding to endothelial cells compared with PC-Gla: HUVEC, FIG. 12A
Method: PC-Gla, TFG, and TFMG were labeled with FNG-456 NHS ester for in vitro assays or FNI-675 NHS ester for in vivo assays at a molar ratio of 1:3. Briefly, each molecule (10 μM) was dissolved in PBS (1.5 mL), and FNG-456 NHS ester (30 μM) or FNI-675 NHS ester (30 μM) was dissolved in DMSO (0.2 mL). Each molecule and fluorescent dye was reacted at room temperature for 3 h. The reaction product was passed through a 0.2-μm filtering unit, and the unreacted dye was separated on a PD midiTrap™ G-25 (GE Healthcare, UK) that had been pre-equilibrated in PBS with 2 mM sodium azide. This process yielded more than 2.17 μM of each nanoparticle with more than 1.5 ratio of dye per protein.
A direct cell-binding assay was performed on HUVECs and in vivo using fluorescence labeled-PC-Gla, TFG, and TFMG. The assay was performed with PC-Gla, TFG, or TFMG treated on HUVECs, intravenously injected mice, and isolated mouse endothelial cells. The fluorescence value of the HUVECs or endothelial cells were measured with tightly bound PC-Gla, TFG, and TFMG, respectively. The concentrations of PC-Gla, TFG, and TFMG were measured by using the nanoparticle ratio of fluorescent dye per protein.

[1] = system: LPS-stimulated HUVEC cells; assay: in vitro permeability assay (Evans blue-bound albumin flux); type: cell-based, human; settings: HUVECs, LPS 100 ng/mL 4 h, up to 100 nM, FIG. 19
Method: For spectrophotometric quantification of endothelial cell permeabilities in response to increasing concentrations of each molecule, the flux of Evans blue-bound albumin across functional cell monolayers was measured using a modified 2-compartment chamber model, as previously described. HUVECs were plated (5×10^4/well) in 12-mm diameter Transwells with a pore size of 3 μm for 3 days. Confluent monolayers of HUVECs were exposed to LPS (100 ng/mL) for 4 h before being subjected to PC-Gla with TRAP, TFG, or TFMG (up to 100 nM). Transwell inserts were then washed with TBS (pH 7.4), followed by the addition of Evans blue (0.5 mL; 0.67 mg/mL) diluted in a growth medium containing 4% BSA. Fresh growth medium was then added to the lower chamber, and the medium in the upper chamber was replaced with Evans blue/BSA. Ten minutes later, the optical density of the sample in the lower chamber was measured at 650 nm.

[2] = system: LPS-stimulated HUVEC cells; assay: cell-cell adhesion assay (leukocytes to HUVEC monolayers); type: cell-based, human; settings: HUVECs, LPS 100 ng/mL 4 h, FIG. 21B
Method: Adherence of monocytes to endothelial cells was evaluated by fluorescent labeling of monocytes, as previously described. Briefly, monocytes were labeled with 5 μM Vybrant DiD for 20 min at 37° C. in phenol red-free RPMI containing 5% FBS. After washing, the cells (1.5×10^6 cells/mL, 200 μL/well) were resuspended in adhesion medium (RPMI containing 2% fetal bovine serum and 20 mM HEPES). The cells were then added to confluent monolayers of HUVECs in 96-well plates. Prior to the addition of cells, HUVECs were treated PC-Gla with TRAP, TFG, or TFMG for 6 h, followed by treatment with LPS (100 ng/mL, 4 h). Quantification of cell adhesion was determined as previously described.

IL-6, IL-10, TNF-α = assay: blood inflammatory cytokines (ELISA) in CLP-induced sepsis; type: in vivo, mouse; settings: for level of IL-6 / level of IL-10: FIG. 18A; for level of TNF-α: FIG. 18B
Method: as §1, §2

Row | Molecule | toxicity indicator for general organs (LDH) (CLP-induced sepsis) | toxicity indicators for kidneys (creatinine and BUN) (CLP-induced sepsis) | toxicity indicators for liver (ALT and AST) (CLP-induced sepsis) | in vivo binding to endothelial cells compared with PC-Gla (endothelial cells) | degree of binding to HUVECs (HUVECs) | in vitro binding to endothelial cells compared with PC-Gla (HUVECs) | in vitro endothelial cell permeability [1] | adhesion of leukocytes [2] | level of IL-6 (IL-6, IL-10, TNF-α) | level of IL-10 (IL-6, IL-10, TNF-α) | level of TNF-α (IL-6, IL-10, TNF-α)
1 | TFG: fusion polypeptide: TRAP at N-terminus and PC-Gla at C-terminus of short ferritin monomer fragment, forms nanocage (apparently SEQ ID NO: 14) (protein, Fusion polypeptide (1)) MGGTTFLLRNASGHMSSQIRQNYSTDVEAAVNSLVNLYLQASYTYLSLGFYFDRDDVALEGVSHFFRELAEEKREGYERLLKMQNQRGGRIFLQDIKKPAEDEWGKTPDAMKAAMALEKKLNQALLDLHALGSARTDPHLCDFLETHFLDEEVKLIKKMGDHLTNLHRLGGGSEFVDGGGSGTSANSFLEELRHSSLERECIEEICDFEEAKEIFQNVDDTLAFWSKHVLEHHHHHH | considerably improved | considerably improved | considerably improved | bound more strongly to, and stayed longer on, endothelial cells than PC-Gla did | strong binding affinities which are equivalent to that of PC-Gla | bound more strongly to, and stayed longer on, endothelial cells than PC-Gla did | alleviated | inhibited | mitigated | mitigated | mitigated
2 | TFMG: as TFG with an MMP-2 cleavable linker (GPLGLAG) between ferritin fragment C-terminus and PC-Gla (apparently SEQ ID NO: 15) (protein, Fusion polypeptide (2)) MGGTTFLLRNASGHMSSQIRQNYSTDVEAAVNSLVNLYLQASYTYLSLGFYFDRDDVALEGVSHFFRELAEEKREGYERLLKMQNQRGGRIFLQDIKKPAEDEWGKTPDAMKAAMALEKKLNQALLDLHALGSARTDPHLCDFLETHFLDEEVKLIKKMGDHLTNLHRLGGGSEFVDGGGSGTSGPLGLAGANSFLEELRHSSLERECIEEICDFEEAKEIFQNVDDTLAFWSKHVLEHHHHHH | considerably improved | considerably improved | considerably improved | bound more strongly to, and stayed longer on, endothelial cells than PC-Gla did | strong binding affinities which are equivalent to that of PC-Gla | bound more strongly to, and stayed longer on, endothelial cells than PC-Gla did | alleviated | inhibited | mitigated | mitigated | mitigated

Reference: patent US10513545B2, “Fusion polypeptide in which anti-inflammatory polypeptide and ferritin monomer fragment are bound and pharmaceutical composition for preventing and treating inflammatory diseases, containing same as active ingredient” (KYUNGPOOK NATIONAL UNIVERSITY INDUSTRY-ACADEMIC COOPERATION …, priority 2015, dated 2019)
